Test [1] deals with T1, human CD3 expressed on cells (Jurkat cells; human primary T cells) (human, UniProt P07766 23-207; P04234 22-171; P09693 23-182).
T1 construct: whole, on cells
As to the kind of experiment: flow cytometry, Jurkat cells. How it is done:
(§1) Purified antibodies were confirmed to bind CD3 expressed on cells using the CytoFLEX S or LX flow cytometers (Beckman Coulter). Antibodies were diluted to 25 nM in FACS buffer (PBS+2% FBS) and were incubated with CD3-expressing cells for 30 minutes at 4° C. […] The median fluorescence intensity of the binding signal for each antibody was normalized to the isotype control to obtain a fold over isotype value. An antibody with a fold over isotype (FOI) of ≥10 was considered to be positive for binding.

The target of test [2] is T2, cynomolgus monkey CD3 expressed on cyno primary T cells (cynomolgus monkey, UniProt Q95LI5 22-198; Q95LI8 22-171; Q95LI7 23-181).
T2 construct: whole, on cells; CD3 complex on purified cynomolgus monkey CD3 pan T cells; also called cyno CD3
As to the kind of experiment: flow cytometry, cyno primary T cells. The procedure, abridged:
(§2)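 Binding reported as fold over isotype: median fluorescence intensity divided by isotype control, with ≥10 scored positive. Cells were exposed to 25 nM antibody in PBS/2% FBS, 30 min, 4 °C, before flow cytometric read-out.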
For orientation: Flow cytometry measures light scatter and fluorescence of single cells or particles in a stream.

Test [3] addresses T3, cynomolgus monkey CD3 expressed on primary T cells (cynomolgus monkey, UniProt Q95LI5 22-198; Q95LI8 22-171; Q95LI7 23-181).
T3 construct: whole, on cells; CD3 complex on purified cynomolgus monkey T cells; also called cyno CD3
The test can be described thus: flow cytometry, 25 nM, cyno primary T cells. A digest of the protocol: as §2

For test [4], the target named is T4, human CD3 expressed on cells (human, UniProt P07766 23-207; P04234 22-171; P09693 23-182).
T4 construct: whole, on cells; CD3 complex on Jurkat cells and on human primary T cells
The test can be described thus: flow cytometry, 25 nM, Jurkat cells (human primary T cells in c4 also <10). As for the experimental part: as §1

Test [5] addresses T4, human CD3 expressed on cells. The test can be described thus: flow cytometry, 25 nM. A digest of the protocol:
as §2

T1 sequence (P07766 23-207, chain 1 of 3): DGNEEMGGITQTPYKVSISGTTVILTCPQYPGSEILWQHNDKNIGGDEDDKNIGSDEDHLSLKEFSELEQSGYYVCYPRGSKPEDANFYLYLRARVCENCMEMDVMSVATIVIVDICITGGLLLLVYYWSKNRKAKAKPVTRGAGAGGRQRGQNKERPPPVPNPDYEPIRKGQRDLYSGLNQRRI
T1 sequence (P04234 22-171, chain 2 of 3): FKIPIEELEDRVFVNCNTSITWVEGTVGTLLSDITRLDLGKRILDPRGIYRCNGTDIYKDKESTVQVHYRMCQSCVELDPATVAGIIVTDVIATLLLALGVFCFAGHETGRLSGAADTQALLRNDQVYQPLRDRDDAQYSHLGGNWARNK
T1 sequence (P09693 23-182, chain 3 of 3): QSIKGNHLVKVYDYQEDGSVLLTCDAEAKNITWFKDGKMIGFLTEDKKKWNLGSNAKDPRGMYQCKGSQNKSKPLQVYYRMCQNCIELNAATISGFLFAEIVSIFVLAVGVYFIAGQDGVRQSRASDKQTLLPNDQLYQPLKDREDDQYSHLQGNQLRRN
T4 sequence (P07766 23-207, chain 1 of 3): as the sequence (P07766 23-207, chain 1 of 3) above
T4 sequence (P04234 22-171, chain 2 of 3): as the sequence (P04234 22-171, chain 2 of 3) above
T4 sequence (P09693 23-182, chain 3 of 3): as the sequence (P09693 23-182, chain 3 of 3) above
T3 sequence (Q95LI5 22-198, chain 1 of 3): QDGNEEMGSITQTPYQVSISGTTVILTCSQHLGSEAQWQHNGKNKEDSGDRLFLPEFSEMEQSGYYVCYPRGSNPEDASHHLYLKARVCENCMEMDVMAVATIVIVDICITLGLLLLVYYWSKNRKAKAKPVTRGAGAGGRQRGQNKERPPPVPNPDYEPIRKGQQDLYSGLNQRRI
T3 sequence (Q95LI8 22-171, chain 2 of 3): as the sequence (P04234 22-171, chain 2 of 3) above, with I5V, N15K, I20V, S32T, D33N, I34N, T64A, S74N, V83L, H141R counted along it
T3 sequence (Q95LI7 23-181, chain 3 of 3): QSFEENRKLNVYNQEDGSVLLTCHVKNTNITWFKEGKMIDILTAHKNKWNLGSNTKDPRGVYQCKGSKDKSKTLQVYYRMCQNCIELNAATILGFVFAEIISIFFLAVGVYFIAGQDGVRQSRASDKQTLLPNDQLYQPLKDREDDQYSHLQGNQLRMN
T2 sequence (Q95LI5 22-198, chain 1 of 3): as the sequence (Q95LI5 22-198, chain 1 of 3) above
T2 sequence (Q95LI8 22-171, chain 2 of 3): as the sequence (P04234 22-171, chain 2 of 3) above, with I5V, N15K, I20V, S32T, D33N, I34N, T64A, S74N, V83L, H141R counted along it
T2 sequence (Q95LI7 23-181, chain 3 of 3): as the sequence (Q95LI7 23-181, chain 3 of 3) above

B1: mAb 182 (antibody, V domains shown)
VH: QVQLVQSGAGMKKPGASVRVSCKASGYNFIDYHIHWVRQAPGQGLEWMGWINPKSGRTMSAQKFQGRVTMTRDTSITAAYMELNRLRSDDSAIYYCARVTQLVFDHWGQGTLVTVSL
VL: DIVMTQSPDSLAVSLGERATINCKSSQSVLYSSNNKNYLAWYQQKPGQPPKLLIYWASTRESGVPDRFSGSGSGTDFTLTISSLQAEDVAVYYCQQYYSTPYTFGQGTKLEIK
notes: VH/VL only
In the case of B1, the binding result in test [1] and in test [2] was “no binding (tested: FOI <10 (FOI >=10 = positive); 25 nM)” in each case.

B2: mAb 181 (antibody, V domains shown)
VH: QVQLVQSGADMKKPGASVKVSCKASGYTFTDYHIHWVRQAPGQGLEWMGWINPKSGRTMFAQNFQDRVTMTRDTSISTAYMELNRLRSDDSAVYYCARVTQLVFDHWGQGTLVTVSF
VL: AIQMTQSPSSLSASVGDRVTITCRASQGIRNDLGWYQQKPGKAPKLLIYAASSLQSGVPSRFSGSGSGTDFTLTISSLQPEDFATYYCLQDYNYMYTFGQGTKLEIK
notes: VH/VL only
For the molecule B2, the binding result in test [1] and in test [2] was “no binding (tested: FOI <10 (FOI >=10 = positive); 25 nM)” in each case.

B3: mAb 183 (antibody, V domains shown)
VH: QVQLVQSGAEVKKPGASVRVSCKSSGYTFTGYYIHWVRQAPGQGLEWMGWINPKSGRTSYAEKFQGSITMTRDTSINTAYMELTKLRSDDTAVYYCERMGELLLFDYWGQGTLVTVSS
VL: not shown
notes: VH/VL only
On to B3, for which the binding result in test [1] and in test [2] was “no binding (tested: FOI <10 (FOI >=10 = positive); 25 nM)” in each case.

B4: mAb 168 (antibody, V domains shown)
VH: EVQLVQSGAEVKKPGESLKISCKGSGYIFTSYWIGWVRQMPGKGLEWMGIIYPGDSDTRYSPSFQGQVTISADKSISTAYLQWSSLKASDTAMYYCARRNYYYYMDVWGKGTTVTVSS
VL: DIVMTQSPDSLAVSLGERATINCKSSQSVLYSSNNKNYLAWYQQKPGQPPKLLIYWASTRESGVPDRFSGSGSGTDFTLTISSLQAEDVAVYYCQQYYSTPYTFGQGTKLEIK
With B4, the binding result in test [3] and in test [4] was “no binding (tested: FOI >=10 = positive)” throughout. Further, the “Human primary T Cell Binding (FOI)” value in test [5] turned out to be 1.48 FOI.

B5: mAb 150 (antibody, V domains shown)
VH: QVQLVQSGAEVKKPGASVKVSCKASGYTFTAYHTHWVRQAPGQGLEWMGWIYPKSGRTTYTQKFQGRVTMTRDTSISTVYMELSRLKSDDTAVYYCARVGALLFDYWGQGTLVTVSS
VL: EIVLTQSPATLSLSPGERATLSCRASQSVSSYLAWYQQKPGQAPRLLIYDASNRATGIPARFSGSGSGTDFTLTISSLEPEDFAVYYCQQRSNWPLTFGGGTKVEIK
For the molecule B5, the binding result in test [3] and in test [4] was “no binding (tested: FOI >=10 = positive)” throughout. The “Human primary T Cell Binding (FOI)” value in test [5] was 1.68 FOI.

B6: mAb 151 (antibody, V domains shown)
VH: QVQLVQSGAEVKKPGASVKVSCKASGYTFTAYHTHWVRQAPGQGLEWMGWIYPKSGRTTYTQKFQGRVTMTRDTSISTVYMELSRLKSDDTAVYYCARVGALLFDYWGQGTLVTVSS
VL: DIQMTQSPSSLSASVGDRVTITCRASQGIRNDLGWYQQKPGKAPKCLIYAASNLQSGVPSRFSGSGSGTEFTLTISSLQPEDFATYYCLQHNSYPRTFGQGTKVDVK
Take B6: the binding result in test [3] and in test [4] was “no binding (tested: FOI >=10 = positive)” throughout. Moreover, the “Human primary T Cell Binding (FOI)” value in test [5] was 1.36 FOI.

B7: mAb 149 (antibody, V domains shown)
VH: QVQLVQSGAEVKKPGASVKVSCKASGYTFTAYHTHWVRQAPGQGLEWMGWIYPKSGRTTYTQKFQGRVTMTRDTSISTVYMELSRLKSDDTAVYYCARVGALLFDYWGQGTLVTVSS
VL: not shown
On to B7, for which the binding result in test [3] and in test [4] was “no binding (tested: FOI >=10 = positive)” in each case. In addition, the “Human primary T Cell Binding (FOI)” value in test [5] was found to be 1.45 FOI.

The record behind these values is US20230295310A1 (ABCELLERA BIOLOGICS, published 2023).
